# B1: scFv of mAb specific for human HLA-A1: scFv with VL and VH from monoclonal antibody 4-35-7, SEQ ID NO: 32 (protein)
# scFv: DIQMTQSPSTLSASVGDRVTITCRASQSISNWLAWYQQKPGKAPNLLIYKASSLESGVPSRFSGSGSGTEFTLTISSLQPDDFATYYCQQYHDYSVTFGAGTKVEIKRGGGGSGGGGSGGGGSEVQLLESGGGLVQPGGSQRLSCVASGVPFSNYAMNWVRQAPGKGLEWVSSISGGGDRTFYADSVKGRFTISRDNSKNTLYLQMNSLGAGDTAVYYCAKTYYDFWSGYSRHLNSWGQGSLVTVSSGGGGSGGGGSC
# modifications: anti-HLA-A1 4-35-7 scFv
# B2: tetrazine-conjugated scFv specific for human HLA-A1: scFv specific for human HLA-A1 (SEQ ID NO: 32) conjugated at C-terminal cysteine with Mal-PEG4-tetrazine (conjugate)
# scFv: B1 scFv
# modifications: Mal-PEG4-tetrazine at C-terminal cysteine; anti-HLA-A1 4-35-7 scFv
# B3: 3E10: phage-displayed scFv clone that binds to human HLA-A2, SEQ ID NO: 34 (protein)
# scFv: DIQMTQSPSSLSASVGDRVTITCRASQDVFFFVAWYQQKPGKAPKLLIYGPPGLYSGVPSRFSGSGSGTDFTLTISSLQPEDFATYYCQQYFSFPITFGQGTKVEIKRGGGGSIEGRSGGGGSEVQLVESGGGLVQPGGSLRLSCAASGFTISNGGIHWVRQAPGKGLEWVASIWPSGGYTSYADSVKGRFTISADTSKNTAYLQMNSLRAEDTAVYYCARFGVNYHGIMDYWGQGTLVTVSS
# modifications: phage-displayed scFv specific for HLA-A2, 3E10
# What was measured:
# [1] = tested on: mTOR/p70S6K signaling pathway; test: Western blot analysis of mTOR/p70S6K signaling pathway in Jurkat T cells; assay type: cell-based, human; conditions: 100 nM compound with 10 ng/ml IL2, 24 hours, without changes in total p70S6K, FIG. 20A
# Description: To examine the biological activities of these compounds, western blot analysis of mTOR/p70S6K signaling pathway and T-cell proliferation assay were performed with human Jurkat T cells. T-cell viability and proliferation were assessed using alamarBlue® cell viability reagent (Invitrogen).
# For the western blot analysis of mTOR/p70S6K signaling pathway, briefly, Jurkat T cell were seeded into 6-cm cell culture dish in RPM11640 medium containing 10% fetal bovine serum.
# Insoluble material was collected by centrifugation at 14,000×g for 20 minutes at 4° C. The cell lysate samples were separated on 10% SDS-PAGE gels and transferred to a PVDF membrane (Millipore). The membrane blots were blocked in PBS containing 5% BSA for 1 hour at room temperature, and incubated with primary antibodies, anti-phospho-p70S6K antibody (Cell Signaling Technology, Danvers, USA) and anti-p70S6K antibody (Cell Signaling Technology), overnight at 4° C. […] Then the membranes were washed three times with TBST, and immunoreacted bands were detected with ECL™ western blotting detection reagents (Millipore) and exposed on Fujifilm (Tokyo, Japan). Relative quantification of ECL signals on X-ray films were analyzed by using Image J (NIH, Bethesda, Md., USA).
# scFv specific for CTLA-4 = test: Western blot of recombinant CTLA-4 detected with scFv specific for CTLA-4; assay type: binding; conditions: scFv 1 μg/ml; FIG. 14C
# Description: Recombinant CTLA-4 protein was analyzed and detected using western blotting. Briefly, 50 μl of the purified CTLA-4 protein was electrophoresed on the 12% SDS-PAGE gel (lane 2) and electroblotted over to a PDVF membrane. The protein (CTLA-4)-IgG1Fc-(scFv α HLA-A1) was used as a positive control (lane 1). After blocking with 5% BSA in TBST at room temperature for 1 hour, the diluted scFv specific for CTLA-4 (1 μg/ml) was added and incubated with the membrane overnight at 4° C. with gentle shaking. The membrane was rinsed and washed 3 times with TBST. The diluted HRP-conjugated protein L (1:5000) was added and incubated with the membrane at room temperature for 1 hour, and the rinse and wash cycle was repeated with TBST for 3 times. The membrane was then incubated with HRP substrate solution for 20 minutes before being exposed to the photographic film.
# PD1-IgG1.Fc = target: T1, PD1-IgG1.Fc (Homo sapiens, UniProt Q15116); test: ELISA of coated recombinant PD-L1 binding PD1-IgG1.Fc; conditions: PD-L1 coated at 50 μg/ml, PD1-IgG1.Fc at 50 μg/ml; FIG. 14D
# T1 construct: made in house; host or cells: Expi293F
# T1 sequence (Q15116 with tags, fused parts or gaps): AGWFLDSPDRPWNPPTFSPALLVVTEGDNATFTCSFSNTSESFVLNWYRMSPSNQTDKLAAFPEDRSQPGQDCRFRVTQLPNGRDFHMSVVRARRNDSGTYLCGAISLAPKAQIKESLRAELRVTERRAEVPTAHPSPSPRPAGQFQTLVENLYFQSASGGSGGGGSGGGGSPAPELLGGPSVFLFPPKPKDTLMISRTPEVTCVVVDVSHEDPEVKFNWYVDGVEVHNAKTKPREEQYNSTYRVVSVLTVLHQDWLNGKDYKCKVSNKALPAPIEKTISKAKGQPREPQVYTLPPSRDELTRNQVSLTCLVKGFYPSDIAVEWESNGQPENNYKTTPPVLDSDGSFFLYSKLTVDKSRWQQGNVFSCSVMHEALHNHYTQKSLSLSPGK
# Description: Binding activity of recombinant PD-L1 protein was assayed with ELISA using a 96-well plate coated with recombinant PD-L1 protein in 50 μg/ml concentration, 100 μl per well. After the excess PD-L1 was washed off and the solid phase blocked, 100 μl per well of PD1-IgG1.Fc at 50 μg/ml was added. The bound PD1-IgG1.Fc was determined by HRP-conjugated goat anti-human IgG.Fc. 50 μl of TMB substrate was added for color development. The reaction was stopped by 50 μl of 1M HCl. Absorbance at 450 nm was measured with a plate reader. Each bar represents the mean OD450 value of duplicate samples.
# human HLA-A1 [2] = target: T2, human HLA-A1 (Homo sapiens, UniProt P04439); test: ELISA of purified scFv of mAb specific for human HLA-A1; assay type: binding; conditions: scFv specific for TNF-α as negative control; FIG. 15C
# T2 construct: made in house; host or cells: Expi293F
# Description: The expression of the constructed gene in Expi293F cells was performed as in preceding Examples. Culture supernatants were harvested and scFv proteins in the media were purified using Protein L affinity chromatography. FIGS. 15A, 15B and 15C show 12% SDS-PAGE, mass spectrometric and ELISA analyses of purified scFv of mAb specific for human HLA-A1. […] The scFv specific for TNF-α was used as a negative control, which was prepared as described in PCT patent application publication No. WO/2016112870.
# human HLA-A1 [3] = target: T2, human HLA-A1; test: ELISA of tetrazine-conjugated scFv specific for human HLA-A1; assay type: binding; conditions: unmodified scFv as positive control; FIG. 17B
# From the text: The purity of tetrazine-conjugated scFv specific for human HLA-A1 was identified through Coomassie blue staining of 12% SDS-PAGE. FIGS. 17A and 17B show, respectively, the mass spectrometric and ELISA analysis of tetrazine-conjugated scFv specific for human HLA-A1, in which unmodified scFv specific for human HLA-A1 was used as a positive control.
# human HLA-A2 = target: T3, human HLA-A2 (Homo sapiens, UniProt P04439); test: Single colony ELISA of phage-displayed scFvs specific for human HLA-A2; assay type: binding; conditions: secreted scFv in supernatant; HLA-A2 0.5 μg per well; FIG. 16B
# T3 construct: made in house; host or cells: Expi293F
# Description: E. coli strain ER2738 infected with single-clonal phages each harboring a selected scFv gene in its phagemid was grown in the mid-log phase in 2YT broth (16 g/l tryptone, 10 g/l yeast extract, 5 g/l NaCl, pH 7.0) with 100 μg/ml ampicillin in deep well at 37° C. with shaking. After the broth reached an OD600 of 1.0, IPTG was added to a final concentration of 1 μg/ml. The plates were incubated at 37° C. overnight under rigorously shaking. Thereafter, the plates were centrifuged at 4,000 g for 15 minutes at 4° C.
# For soluble scFv binding test, ELISA was carried out. Briefly, 96-well Maxisorp 96-well plate (Nunc) was coated with human HLA-A2 (0.5 μg/100 μl PBS per well) or two negative control antigens, human heat shock protein 70 (Hsp 70) and RSV-IgG1.Fc fusion protein (prepared by our laboratory), for 18 hours with shaking at 4° C. After being treated with 300 μl of blocking buffer for 1 hour, 100 μl of secreted scFv in the supernatant was mixed with 100 μl of blocking buffer and then added to the coated plate for another 1 hour. Goat anti-E-tag antibody (conjugated with HRP, 1:4000, Cat. No. AB19400, Abcam) was added to the plate for 1 hour. TMB substrate (50 μl per well) was added to the wells and the absorbance at 450 nm was measured after reactions were stopped by adding 1N HCl (50 μl per well).
molecule,measurement,setting,value
COC1CC2CCC(C)C(O)(O2)C(=O)C(=O)N2CCCCC2C(=O)OC(C(C)CC2CCC(OC(=O)CN)C(OC)C2)CC(=O)C(C)C=C(C)C(O)C(OC)C(=O)C(C)CC(C)C=CC=CC=C1C (stereo not shown) [sirolimus-Gly],phosphorylated level of p70S6K,[1],decreased
COC1CC2CCC(C)C(O)(O2)C(=O)C(=O)N2CCCCC2C(=O)OC(C(C)CC2CCC(OC(=O)CNC(=O)CN)C(OC)C2)CC(=O)C(C)C=C(C)C(O)C(OC)C(=O)C(C)CC(C)C=CC=CC=C1C (stereo not shown) [sirolimus-diGly],phosphorylated level of p70S6K,[1],decreased
"recombinant human CTLA-4: recombinant human CTLA-4, SEQ ID NO: 30, with GGGGSGGGGS linker and terminal cysteine at the C-terminus",binding by the scFv specific for CTLA-4 (western blot),scFv specific for CTLA-4,specifically bound
"recombinant human PD-L1: recombinant human PD-L1, SEQ ID NO: 31, with GGGGSGGGGS linker and terminal cysteine at the C-terminus",binding to recombinant PD1-IgG1.Fc (ELISA),PD1-IgG1.Fc,specifically bound
B1,binding to human HLA-A1 (ELISA),human HLA-A1 [2],bound specifically
B2,binding to recombinant HLA-A1 (ELISA),human HLA-A1 [3],bound to recombinant HLA-A1
B3,OD450 of binding to human HLA-A2,human HLA-A2,1.3

# Source: patent publication US10293018B2, “Fusion protein for treating rejection reaction in transplantation” (Immunwork Inc., priority 2015, dated 2019)
